These results are taken from publication PMC5298718.

The assay has as its target NRP1-PerCP-Cy5.5 (carrier free recombinant neuropilin-1 coupled to PerCP-Cy5.5) (UniProt O14786). Kind of assay: FRET or BRET; Scheme 3: VEGF (22.4 nM or 11.2 nM, diluted in PBS) incubated simultaneously in solution with the donor (RLuc8-Ra02 or RLuc8-4xGly-Ra02, cleared HEK293 lysate) and the acceptor NRP1-PerCP-Cy5.5, both in excess; n-CLZ in BRET assay buffer; BRET ratio magenta filter/blue filter, against a no-VEGF control. On the technique in general: Bioluminescence resonance energy transfer reports proximity on the nanometre scale.
Chain of UniProt O14786 (O14786 22-856): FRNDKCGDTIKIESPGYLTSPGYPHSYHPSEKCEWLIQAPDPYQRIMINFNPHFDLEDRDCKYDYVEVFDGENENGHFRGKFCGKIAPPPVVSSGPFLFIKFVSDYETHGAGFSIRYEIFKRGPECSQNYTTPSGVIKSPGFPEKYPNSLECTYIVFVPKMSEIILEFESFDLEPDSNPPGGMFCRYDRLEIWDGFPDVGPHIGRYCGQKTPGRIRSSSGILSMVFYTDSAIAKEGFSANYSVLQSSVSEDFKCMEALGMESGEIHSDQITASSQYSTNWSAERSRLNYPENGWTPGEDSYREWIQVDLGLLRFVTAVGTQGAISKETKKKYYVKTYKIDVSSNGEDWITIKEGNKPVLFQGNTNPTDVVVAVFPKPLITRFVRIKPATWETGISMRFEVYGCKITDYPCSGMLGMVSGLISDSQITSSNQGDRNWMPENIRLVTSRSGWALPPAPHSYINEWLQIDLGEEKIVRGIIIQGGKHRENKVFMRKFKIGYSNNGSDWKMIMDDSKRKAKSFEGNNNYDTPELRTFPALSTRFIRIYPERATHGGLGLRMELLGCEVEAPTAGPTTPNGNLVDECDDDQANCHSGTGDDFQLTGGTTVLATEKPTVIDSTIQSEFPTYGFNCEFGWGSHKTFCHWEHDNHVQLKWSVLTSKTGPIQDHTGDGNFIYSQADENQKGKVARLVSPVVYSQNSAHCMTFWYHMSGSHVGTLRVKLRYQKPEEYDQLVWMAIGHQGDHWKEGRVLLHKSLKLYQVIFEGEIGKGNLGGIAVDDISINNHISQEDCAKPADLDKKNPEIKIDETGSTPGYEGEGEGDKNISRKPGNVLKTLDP

For the substance “vascular endothelial growth factor (rhVEGF165) (ligand)”, the BRET ratio (donor RLuc8-4xGly-Ra02, 11.2 nM VEGF) came out at 114 mBU; the BRET ratio (donor RLuc8-4xGly-Ra02, 22.4 nM VEGF) turned out to be 119 mBU; the BRET ratio (donor RLuc8-Ra02, 11.2 nM VEGF) was 110 mBU; the BRET ratio (donor RLuc8-Ra02, 22.4 nM VEGF) turned out to be 115 mBU.
